Measurements reported in patent publication US20240123070A1, “EPITOPE PEPTIDE OF RAS G13D MUTANT AND T CELL RECEPTOR RECOGNIZING RAS G13D MUTANT” (SHANGHAI GENBASE BIOTECHNOLOGY CO., LTD., priority 2021, published 2024).
Substitutions are numbered along the chain they refer to.

B1: B8.2.4 TCR mutant β95Q-A (protein)
chain 1: AQKITQTQPGMFVQEKEAVTLDCTYDTSDPSYGLFWYKQPSSGEMIFLIYQGSYDQQNATEGRYSLNFQKARKSANLVISASQLGDSAMYFCAMRERTGTASKLTFGTGTRLQVTL
chain 2: DVKVTQSSRYLVKRTGEKVFLECVQDMDHENMFWYRQDPGLGLRLIYFSYDVKMKEKGDIPEGYSVSREKKERFSLILESASTNQTSMYLCASSATVPPQHFGDGTRLSIL
B2: B8.2.4 TCR mutant β95Q-C (protein)
chain 1: B1 chain 1
chain 2: B1 chain 2 with A95C
B3: B8.2.4 TCR mutant β95Q-D (protein)
chain 1: B1 chain 1
chain 2: B1 chain 2 with A95D
B4: B8.2.4 TCR mutant β95Q-E (protein)
chain 1: B1 chain 1
chain 2: B1 chain 2 with A95E
B5: B8.2.4 TCR mutant β95Q-G (protein)
chain 1: B1 chain 1
chain 2: B1 chain 2 with A95G
B6: B8.2.4 TCR mutant β95Q-H (protein)
chain 1: B1 chain 1
chain 2: B1 chain 2 with A95H
B7: B8.2.4 TCR mutant β95Q-I (protein)
chain 1: B1 chain 1
chain 2: B1 chain 2 with A95I
B8: B8.2.4 TCR mutant β95Q-M (protein)
chain 1: B1 chain 1
chain 2: B1 chain 2 with A95M
B9: B8.2.4 TCR mutant β95Q-N (protein)
chain 1: B1 chain 1
chain 2: B1 chain 2 with A95N
B10: B8.2.4 TCR mutant β95Q-T (protein)
chain 1: B1 chain 1
chain 2: B1 chain 2 with A95T
B11: B8.2.4 TCR mutant β95Q-V (protein)
chain 1: B1 chain 1
chain 2: B1 chain 2 with A95V
B12: B8.2.4 TCR mutant β95Q-W (protein)
chain 1: B1 chain 1
chain 2: B1 chain 2 with A95W
B13: B8.2.4 TCR mutant β95Q-Y (protein)
chain 1: B1 chain 1
chain 2: B1 chain 2 with A95Y
B14: B8.2.4 TCR mutant β97V-I (protein)
chain 1: B1 chain 1
chain 2: B1 chain 2 with A95Q, V97I
B15: B8.2.4 TCR mutant β97V-S (protein)
chain 1: B1 chain 1
chain 2: B1 chain 2 with A95Q, V97S
B16: B8.2.4 TCR mutant β97V-T (protein)
chain 1: B1 chain 1
chain 2: B1 chain 2 with A95Q, V97T
B17: B8.2.4 TCR mutant β98P-C (protein)
chain 1: B1 chain 1
chain 2: B1 chain 2 with A95Q, P98C
B18: B8.2.4 TCR mutant β98P-D (protein)
chain 1: B1 chain 1
chain 2: B1 chain 2 with A95Q, P98D
B19: B8.2.4 TCR mutant β98P-F (protein)
chain 1: B1 chain 1
chain 2: B1 chain 2 with A95Q, P98F
B20: B8.2.4 TCR mutant β98P-G (protein)
chain 1: B1 chain 1
chain 2: B1 chain 2 with A95Q, P98G
B21: B8.2.4 TCR mutant β98P-H (protein)
chain 1: B1 chain 1
chain 2: B1 chain 2 with A95Q, P98H
B22: B8.2.4 TCR mutant β98P-L (protein)
chain 1: B1 chain 1
chain 2: B1 chain 2 with A95Q, P98L
B23: B8.2.4 TCR mutant β98P-M (protein)
chain 1: B1 chain 1
chain 2: B1 chain 2 with A95Q, P98M
B24: B8.2.4 TCR mutant β98P-R (protein)
chain 1: B1 chain 1
chain 2: B1 chain 2 with A95Q, P98R
B25: B8.2.4 TCR mutant β98P-S (protein)
chain 1: B1 chain 1
chain 2: B1 chain 2 with A95Q, P98S
B26: B8.2.4 TCR mutant β98P-V (protein)
chain 1: B1 chain 1
chain 2: B1 chain 2 with A95Q, P98V
B27: B8.2.4 TCR mutant β98P-W (protein)
chain 1: B1 chain 1
chain 2: B1 chain 2 with A95Q, P98W

Target: T1, KRAS G13D (G13D-RT6) peptide on HLA-DQA1*05:01 / HLA-DQB1*03:01 (human)
T1 chain: YKLVVVGAGDVGKSAL
Experiment: NFAT-luciferase; Jurkat-NFAT-Luc with the TCR and Lovo-DPA0301:DPB0501 cells loaded with G13D-RT6; against wild-type B8.2.4 TCR; full-length, on cells
Details: chains Valpha:Vbeta

Row | Binder | TCR Mut RLU/WT RLU
1 | B1 | 0.86
2 | B2 | 1.14
3 | B3 | 0.6
4 | B4 | 0.81
5 | B5 | 1.03
6 | B6 | 0.68
7 | B7 | 0.74
8 | B8 | 0.99
9 | B9 | 0.6
10 | B10 | 0.59
11 | B11 | 0.76
12 | B12 | 0.88
13 | B13 | 0.92
14 | B14 | 0.61
15 | B15 | 0.78
16 | B16 | 0.98
17 | B17 | 1.11
18 | B18 | 0.8
19 | B19 | 0.96
20 | B20 | 0.73
21 | B21 | 0.6
22 | B22 | 0.67
23 | B23 | 0.83
24 | B24 | 0.73
25 | B25 | 0.94
26 | B26 | 0.63
27 | B27 | 0.81
